Laboratory results: PMC12753876

Columns and labels:
[1] = target: HsFA3 E188R in pGBKT7 (BD) (Arabidopsis thaliana) (UniProt Q8GYY1); assay: two-hybrid; CRY1 as prey in pGADT7 (AD), HsF as bait in pGBKT7 (BD), co-transformed into yeast Y187; liquid beta-galactosidase assay with CPRG, Miller units; not detected (ND) if OD578 <0.01 after 3 h of color development
[2] = target: HsFA1e^R126E in pGBKT7 (BD) (Arabidopsis thaliana) (UniProt Q9SCW5); assay: as above
[3] = target: HsFA3 E188R in pGBKT7 (BD) (UniProt Q8GYY1); assay: yeast two-hybrid (beta-galactosidase, Miller units); details: n=3; parent: est. 270; read off a plot
HsFA3 E188R in pGBKT7 (BD), sequence (Q8GYY1 whole entry E188R): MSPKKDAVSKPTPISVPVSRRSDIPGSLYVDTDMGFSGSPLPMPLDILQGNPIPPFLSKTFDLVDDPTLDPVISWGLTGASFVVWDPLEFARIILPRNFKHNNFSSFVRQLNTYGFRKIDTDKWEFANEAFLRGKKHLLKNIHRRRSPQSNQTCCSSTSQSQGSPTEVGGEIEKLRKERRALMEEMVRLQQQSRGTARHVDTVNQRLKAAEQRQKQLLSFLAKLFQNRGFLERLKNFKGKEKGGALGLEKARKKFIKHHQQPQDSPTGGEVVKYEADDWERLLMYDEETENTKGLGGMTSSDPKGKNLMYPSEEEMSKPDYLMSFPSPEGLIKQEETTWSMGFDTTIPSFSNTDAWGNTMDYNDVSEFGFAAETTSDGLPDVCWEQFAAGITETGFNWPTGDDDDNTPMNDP

CRY1^(PHR WT) in pGADT7 (AD), sequence (Q43125 1-508): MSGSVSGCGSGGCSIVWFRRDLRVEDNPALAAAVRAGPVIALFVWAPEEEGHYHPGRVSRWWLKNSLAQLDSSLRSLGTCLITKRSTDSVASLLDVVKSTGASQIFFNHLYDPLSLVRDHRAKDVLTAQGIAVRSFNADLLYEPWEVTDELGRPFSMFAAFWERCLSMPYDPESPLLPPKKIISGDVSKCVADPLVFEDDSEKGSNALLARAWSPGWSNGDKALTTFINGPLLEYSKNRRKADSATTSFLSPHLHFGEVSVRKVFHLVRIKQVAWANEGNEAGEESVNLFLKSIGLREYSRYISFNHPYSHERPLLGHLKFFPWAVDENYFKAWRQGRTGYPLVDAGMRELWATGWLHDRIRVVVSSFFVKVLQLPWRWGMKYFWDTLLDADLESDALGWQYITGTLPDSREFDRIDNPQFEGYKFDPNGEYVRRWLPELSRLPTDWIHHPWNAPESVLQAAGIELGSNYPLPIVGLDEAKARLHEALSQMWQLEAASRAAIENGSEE
HsFA3 E188R in pGBKT7 (BD) (Arabidopsis thaliana), sequence (Q8GYY1 whole entry E188R): as the sequence (Q8GYY1 whole entry E188R) above
HsFA1e^R126E in pGBKT7 (BD) (Arabidopsis thaliana), sequence (Q9SCW5 whole entry, stated change not applied): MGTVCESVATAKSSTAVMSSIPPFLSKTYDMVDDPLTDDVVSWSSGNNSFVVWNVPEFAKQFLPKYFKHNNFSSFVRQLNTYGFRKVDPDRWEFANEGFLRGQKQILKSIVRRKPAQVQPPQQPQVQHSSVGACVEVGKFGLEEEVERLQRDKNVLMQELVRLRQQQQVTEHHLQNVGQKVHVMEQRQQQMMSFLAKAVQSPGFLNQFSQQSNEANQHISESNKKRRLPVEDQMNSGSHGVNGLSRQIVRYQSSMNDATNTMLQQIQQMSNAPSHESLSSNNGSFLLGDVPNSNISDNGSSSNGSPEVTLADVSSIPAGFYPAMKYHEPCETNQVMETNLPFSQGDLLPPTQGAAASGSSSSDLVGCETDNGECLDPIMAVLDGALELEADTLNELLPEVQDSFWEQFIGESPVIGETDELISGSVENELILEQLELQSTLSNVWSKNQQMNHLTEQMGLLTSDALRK

| reduction of Y2H interaction relative to WT [1] | fold increase of Y2H interaction relative to WT [2] [fold] | response [3] [Miller Units] | Substance |
| --- | --- | --- | --- |
| 0.33 | 40 |  | CRY1^(PHR WT) in pGADT7 (AD) (from UniProt Q43125 1-508) (domain or fragment) |
|  |  | 170 | m1; m17 CRY1:R435E; HsFA3:E188R |
|  |  | 300 | m1; m17 CRY1:R211E; CRY1:R435E; HsFA3:E188R |
|  |  | 90 | m1; m17 CRY1:R211E; HsFA3:E188R |
